Reference: US20070179094A1 (Bayer, published 2007)

Target: Rabbit anti-human MDL-1 polyclonal antibodies
Assay: cell-based or functional assay

B1: human MDL-1 extracellular domain protein expressed in baculovirus (receptor)
chain: PQIFNKSNDGFTTTRSYGTVSQIFGSSSPSPNGFITTRSYGTVCPKDWEFYQARCFFLSTSESSWNESRDFCKGKGSTLAIVNTPEKLKFLQDITDAEKYFIGLIYHREEKRWRWINNSVFNGNVTNQNQNFNCATIGLTKTFDAASCDISYRRICEKNAK
With B1 the “IC50 for inhibition of α-hMDL-1 pAb-induced β-galactosidase reporter signaling in the CD3zH912Z1 line” value was 0.1 nM.
